Experimental data published in publication PMC3846889, “Interacting Proteins on Human Spermatozoa: Adaptive Evolution of the Binding of Semenogelin I to EPPIN” (PLoS ONE, 2013).
Residue numbers refer to the chain shown, from its start. Numbers in names are those of the source.

T1: biotinylated SEMG1^214-42 (human, UniProt P04279-1 26-281, biotin (biotinylated as in ref. 23; sites not stated))
T1 construct: semenogelin I (SEMG1), human, residues G26-R281; The same construct as m2, biotinylated; also called bt-SEMG1; source: E. coli BL21 Star (DE3), purified under denaturing conditions (Ni-NTA), then biotinylated
T1 sequence (looked up): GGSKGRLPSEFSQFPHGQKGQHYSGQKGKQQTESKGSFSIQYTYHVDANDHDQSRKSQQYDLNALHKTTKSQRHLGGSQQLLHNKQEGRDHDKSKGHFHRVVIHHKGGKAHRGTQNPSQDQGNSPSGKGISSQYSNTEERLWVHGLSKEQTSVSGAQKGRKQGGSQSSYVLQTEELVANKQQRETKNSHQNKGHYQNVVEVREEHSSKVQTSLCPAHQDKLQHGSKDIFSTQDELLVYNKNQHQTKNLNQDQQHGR

B1: recombinant SEMG1^74-42 (residues R165-R281) (domain or fragment, human, UniProt P04279-1 165-281, looked up)
chain: RLWVHGLSKEQTSVSGAQKGRKQGGSQSSYVLQTEELVANKQQRETKNSHQNKGHYQNVVEVREEHSSKVQTSLCPAHQDKLQHGSKDIFSTQDELLVYNKNQHQTKNLNQDQQHGR
notes: semenogelin I (SEMG1), human, residues R165-R281, in pET100/D-TOPO; source: E. coli BL21 Star (DE3), purified under denaturing conditions (Ni-NTA); not shown: His6, N-terminal, kept
B2: human recombinant SEMG1^214-42 (wild-type, residues G26-R281) (domain or fragment, UniProt P04279-1 26-281, looked up)
chain: T1 sequence (looked up)
notes: semenogelin I (SEMG1), human, residues G26-R281, cloned into pET100/D-TOPO; also called his-SEMG1; semenogelin I fragment G26-R281; source: E. coli BL21 Star (DE3), purified under denaturing conditions (Ni-NTA); not shown: His6, N-terminal, kept
B3: C239H-SEMG1^214-42 (domain or fragment, human, UniProt P04279-1 26-281, looked up)
chain: T1 sequence (looked up) with C214H
notes: semenogelin I (SEMG1), human, residues G26-R281 with C239H (His239 is the Gorilla residue); Point mutant of m2; source: E. coli BL21 Star (DE3), purified under denaturing conditions (Ni-NTA); not shown: His6, N-terminal, kept
B4: C239R-SEMG1^214-42 (domain or fragment, human, UniProt P04279-1 26-281, looked up)
chain: T1 sequence (looked up) with C214R
notes: semenogelin I (SEMG1), human, residues G26-R281 with C239R (Arg239 is the residue of Macaca mulatta and Papio anubis); Point mutant of m2; source: E. coli BL21 Star (DE3), purified under denaturing conditions (Ni-NTA); not shown: His6, N-terminal, kept
B5: recombinant SEMG1^74-8 (residues R165-Q247) (domain or fragment, human, UniProt P04279-1 165-247, looked up)
chain: RLWVHGLSKEQTSVSGAQKGRKQGGSQSSYVLQTEELVANKQQRETKNSHQNKGHYQNVVEVREEHSSKVQTSLCPAHQDKLQ
notes: semenogelin I (SEMG1), human, residues R165-Q247, in pET100/D-TOPO; also called fragment 74-8; source: E. coli BL21 Star (DE3), purified under denaturing conditions (Ni-NTA); not shown: His6, N-terminal, kept
B6: human recombinant EPPIN (residues P22-P133) (domain or fragment)
chain: not shown
notes: EPPIN, human, residues P22-P133, cloned into pET100/D-TOPO; also called tag-free EPPIN; source: E. coli Rosetta-Gami 2 (DE3), purified under denaturing conditions (Ni-NTA); 6X His-tag removed with enterokinase; not shown: His6, N-terminal, cleaved
B7: C239G-SEMG1^214-42 (domain or fragment, human, UniProt P04279-1 26-281, looked up)
chain: T1 sequence (looked up) with C214G
notes: semenogelin I (SEMG1), human, residues G26-R281 with C239G; Point mutant of m2; source: E. coli BL21 Star (DE3), purified under denaturing conditions (Ni-NTA); not shown: His6, N-terminal, kept
B8: C239S-SEMG1^214-42 (domain or fragment, human, UniProt P04279-1 26-281, looked up)
chain: T1 sequence (looked up) with C214S
notes: semenogelin I (SEMG1), human, residues G26-R281 with C239S; Point mutant of m2; source: E. coli BL21 Star (DE3), purified under denaturing conditions (Ni-NTA); not shown: His6, N-terminal, kept
B9: C239D-SEMG1^214-42 (domain or fragment, human, UniProt P04279-1 26-281, looked up)
chain: T1 sequence (looked up) with C214D
notes: semenogelin I (SEMG1), human, residues G26-R281 with C239D; Point mutant of m2; source: E. coli BL21 Star (DE3), purified under denaturing conditions (Ni-NTA); not shown: His6, N-terminal, kept

What follows are binders tested against B6 (assay: cell-based or functional assay). Details: not given.
QRETKNSHQNKGHYQNVVEVREEHSSKVQTSLCPAHQDKLQ (domain or fragment, human, UniProt P04279-1 207-247, looked up) [recombinant SEMG1^32-8 (residues Q207-Q247)] was tested, and the “inhibition of human sperm motility (normalized iRMI by CASA), concentration-response, EC50” value was 1750 nM.
With B1 the “inhibition of human sperm motility (normalized iRMI by CASA), concentration-response, EC50” value was 3560 nM.
For B2, the “inhibition of human sperm motility (normalized iRMI by CASA), concentration-response, EC50” value was 1690 nM.
In the case of B3, the “inhibition of human sperm motility (normalized iRMI by CASA), concentration-response, EC50” value is reported as 1080 nM.
For B4, the “inhibition of human sperm motility (normalized iRMI by CASA), concentration-response, EC50” value was 2210 nM.

The binders below were run against B6 (assay: AlphaScreen or HTRF; competition: EPPIN (10 nM) and bt-SEMG1^214-42 (1 nM) with increasing SEMG1 competitor (10 pM - 8 µM), 30 µl, 15 µg/ml beads; as in ref. 23). Details: both partners purified.
B1 gave an IC50 of 124 nM.
B5 showed an IC50 of 385 nM.
Binder B2 has an IC50 of 8.1 nM.

The binders below were run against T1, biotinylated SEMG1^214-42 in the same assay as above. Details: both partners purified.
B6: binds.

Each binder was assayed against B6 (assay: AlphaScreen or HTRF; direct binding, concentration-response: EPPIN (29 nM) on anti-EPPIN Q20E antibody (2 nM) and Protein A acceptor beads; His-tagged SEMG1 construct (0.04-7.5 µM) on Ni-NTA-chelate donor beads; 10 µg/ml beads, 30 µl; EC50 from the specific signal after 16 h). Details: both partners purified.
Binder B2 has an EC50 of 23.1 nM.
For B3, the EC50 was 167 nM.
B7 was tested, and the EC50 was 83.3 nM.
B4 gave an EC50 of 461 nM.
B8 was tested, and the EC50 was 564 nM.
For B9, the EC50 was 96.1 nM.
